Measured values as given in PMC4631483, “The oxygenating constituent of 3,6-diketocamphane monooxygenase from the CAM plasmid of Pseudomonas putida: the first crystal structure of a type II Baeyer–Villiger monooxygenase” (Acta Crystallographica Section D: Biological Crystallography, 2015).

Columns and labels:
[1] = molecular target: the molecule itself; experiment: crystal structure; native apo enzyme; crystals from 50 mM PIPES pH 6.5, 50% ammonium sulfate, room temperature; P212121, two subunits in the asymmetric unit; 1.9 A
[2] = molecular target: the molecule itself; experiment: crystal structure; overexpressed enzyme co-crystallised with 20 mM FMN, 5 mM NADH, 5 mM (-)-camphor; 100 mM HEPES pH 7.0, 20% PEG 3350, 18 C; P212121, one dimer in the asymmetric unit; 1.9 A

B1: native 3,6-diketocamphane 1,6-monooxygenase, oxygenating component (enzyme, Pseudomonas putida NCIMB 10007, UniProt D7UER1 1-378, looked up)
chain: MAMETGLIFHPYMRPGRSARQTFDWGIKSAVQADSVGIDSMMISEHASQIWENIPNPELLIAAAALQTKNIKFAPMAHLLPHQHPAKLATMIGWLSQILEGRYFLGIGAGAYPQASYMHGIRNAGQSNTATGGEETKNLNDMVRESLFIMEKIWKREPFFHEGKYWDAGYPEELEGEEGDEQHKLADFSPWGGKAPEIAVTGFSYNSPSMRLAGERNFKPVSIFSGLDALKRHWEVYSEAAIEAGHTPDRSRHAVSHTVFCADTDKEAKRLVMEGPIGYCFERYLIPIWRRFGMMDGYAKDAGIDPVDADLEFLVDNVFLVGSPDTVTEKINALFEATGGWGTLQVEAHDYYDDPAPWFQSLELISKEVAPKILLPKR
notes: 3,6-diketocamphane 1,6-monooxygenase (3,6-DKMO; EC 1.14.13.-), oxygenating component, encoded on the CAM plasmid of Pseudomonas putida NCIMB 10007; monomer 42.3 kDa; residues up to 378 are numbered in the model (A1, A128-133, A176-180, A377-378, B1, B127-135, B176-179 not modelled); also called 3,6-DKMO; native 3,6-DKMO
- stoichiometry N [1]: 2

B2: recombinant (overexpressed) 3,6-diketocamphane 1,6-monooxygenase, oxygenating component, N-terminally hexahistidine-tagged (enzyme, Pseudomonas putida)
chain: B1 chain
notes: 3,6-diketocamphane 1,6-monooxygenase (3,6-DKMO), oxygenating component, the 3,6-DKMO gene of the CAM plasmid of Pseudomonas putida in pET-28b; residues A126-135, A176-179, A377-378, B125-135, B176-179 not modelled in the FMN complex; Crystallised with 20 mM FMN, 5 mM NADH and 5 mM (-)-camphor; only FMN (occupancy 0.6) seen; also called overexpressed 3,6-DKMO; recombinant 3,6-DKMO; source: E. coli …
- stoichiometry N [2]: 2
